From PMC11330416
Several values for one entry are separate records, joined by “and”; a condition that tells them apart may be missing. Identical values can stand only once.

Key:
[1] = molecular target: SARS-CoV-2 Omicron BA.4/5 spike protein reference material OMIC-1 (SARS-CoV-2 (Omicron BA.4/BA.5) | human) (UniProt P0DTC2); assay: SEC-MALS; Waters BEH SEC 4.6 x 150 mm column (200 A for ACE2-1, 450 A for OMIC-1), DPBS with 0.02% Tween-20, pH 7.4, 0.4 mL/min; UV at 280 nm, MALS and RI detection; relative amounts of species from SEC-UV
[2] = molecular target: biotinylated human angiotensin-converting enzyme 2 reference material ACE2-1 (human) (UniProt Q9BYF1); assay: SPR; ACE2-1 immobilised by its biotin on streptavidin on a biotin-coated Au chip (250-300 RU), blocked with 10 uM BSA; spike analyte in a twofold series of 12.5-200 nM at 50 uL/min, about 90 s association, 30-45 min dissociation; 10 mM HEPES pH 7-7.4, 150 mM NaCl, 3 mM EDTA, 0.05% Tween-20; 1:1 binding model; averages of two independent experiments
biotinylated human angiotensin-converting enzyme 2 reference material ACE2-1 (human), sequence (Q9BYF1 20-614): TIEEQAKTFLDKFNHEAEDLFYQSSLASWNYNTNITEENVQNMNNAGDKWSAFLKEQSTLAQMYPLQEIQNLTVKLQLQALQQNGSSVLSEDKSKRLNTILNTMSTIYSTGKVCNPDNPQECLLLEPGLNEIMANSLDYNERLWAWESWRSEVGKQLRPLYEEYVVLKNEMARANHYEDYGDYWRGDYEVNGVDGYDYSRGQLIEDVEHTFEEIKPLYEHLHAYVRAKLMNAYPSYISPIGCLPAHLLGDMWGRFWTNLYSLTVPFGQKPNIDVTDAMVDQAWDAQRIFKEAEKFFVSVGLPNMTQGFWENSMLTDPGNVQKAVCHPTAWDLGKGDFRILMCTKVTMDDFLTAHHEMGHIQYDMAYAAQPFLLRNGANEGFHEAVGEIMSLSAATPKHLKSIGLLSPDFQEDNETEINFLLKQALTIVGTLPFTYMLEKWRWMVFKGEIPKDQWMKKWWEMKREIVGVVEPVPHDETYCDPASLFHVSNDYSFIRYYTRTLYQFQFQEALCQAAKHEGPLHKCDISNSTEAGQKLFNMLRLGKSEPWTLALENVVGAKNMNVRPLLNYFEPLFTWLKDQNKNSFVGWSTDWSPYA

## SARS-CoV-2 Omicron BA.4/5 spike protein reference material OMIC-1 (from UniProt P0DTC2 14-1213)
[1]
  percent in higher molecular weight oligomers (SEC-UV): 14%
  percent in the trimeric form (SEC-UV): 82%
  stoichiometry N: 3 and 6
[2]
  Kd: 4.4 nM
